According to the RNAGym collection of RNA variant scans (doi:10.7554/elife.80360):

B1: HDV Ribozyme (parent)
chain: GGCCGGCAUGGUCCCAGCCUCCUCGCUGGCGCCGGCUGGGCAACAUUCCGAGGGGACCGUCCCCUCGGUAAUGGCGAAUGGGACCCA

Variants of: B1
Assay: self-cleavage, relative activity (ratio to wild type); higher = more cleavage; co-transcriptional

Row | Variant | self-cleavage
1 | GGCCGGCAUGGUCCCAGCCUCCUCGCUGGCGCAGGCUGGGCAACAUUCCGAUGGGACCGUCCCCUCGGUAAUGGCGAAUGGGACCCA | 0.161
2 | GGCCGGCAUGGUCCCAGCCUCCUCGCUGGCGCCGGCUGGGCACCAUUCCGAGGGGACCGUCCCCUCGGUAAUGGCGAAUGGGACCAA | 0.443
3 | GGCCGGCAUGGUCCCAGCCUCCUCGCUGGCGCCGGCUGGGCAACAUUCCGAGGGGACCGUCCCCUCGGUAAAGGCGAACGGGACCCA | 0.248
4 | GGCCGGCAUGGUCCCAGCAUCCUCGCUGGCGCCGGCUGGGCAACAUUCCGAGGGGACCGUCCCCUCGGUAAUGGCGAAUGGGACCUA | 0.0674
5 | GGCCGGCAUGGUCCCAGCCUCCUCGCUGGCGCCCGCUGGGCAACAUUCCGAGGGGACCGUCCGCUCGGUAAUGGCGAAUGGGACCCA | 0.0378
6 | GGCCGGCAUGGUCCCAGGCUCCUCGCUGGCGCCGGCUGGGCAACAUUCCGAGGGUACCGUCCCCUCGGUAAUGGCGAAUGGGACCCA | 0.0811
7 | GGCCGGCAUGGUCCCAGCCUCCUCGCUGGCGCCGGCUGGGCAACAUUCCGAGGGGACCGUCCCCUCGGAAAUGGCGAUUGGGACCCA | 0.222
8 | GACCGGCAUGGUCCCAGCCUCCUCGCUGGCGCCGGCUGGGUAACAUUCCGAGGGGACCGUCCCCUCGGUAAUGGCGAAUGGGACCCA | 0.198
9 | GGCCGGCGUGGUCCCAGCAUCCUCGCUGGCGCCGGCUGGGCAACAUUCCGAGGGGACCGUCCCCUCGGUAAUGGCGAAUGGGACCCA | 0.107
10 | GGCCGGCAUGGUCCCAGCCUCCUCGCUGGCGCCGGCUGGGCCACAUUCCGAGGGGAGCGUCCCCUCGGUAAUGGCGAAUGGGACCCA | 0.237
11 | GGCCGGCAUGGUCUCAGCCUCCUCGCUGGCGCCGGCUGGGCAACAUUCCGAGGGGACCGUCCCCUCGGUAAUGGCGAUUGGGACCCA | 0.156
12 | GGCCGGCAUGGUCCCAGCCUCCUCGCUGGCGCCGGCUGGGUAACAUUCCGAGGGGACCCUCCCCUCGGUAAUGGCGAAUGGGACCCA | 0.963
13 | GGCCGGCAUGGUCCCAGCCUCCUCGCCGGCCCCGGCUGGGCAACAUUCCGAGGGGACCGUCCCCUCGGUAAUGGCGAAUGGGACCCA | 0
14 | GGCCGGCAUGGUCCCAGCCUCCUCGCUGGCGCCGGCUGGGCAACAUUCCGAGGGGACCGUCCCCCCGGUAAUGGCGAAGGGGACCCA | 0.396
15 | GGCCGGCAUGGUCCCAGACUCCUCGCUGGCGCCGGCUGGGCAACAUUCCGAGGGGACCGUCCCCUCGGUGAUGGCGAAUGGGACCCA | 0
16 | GGCCGCCAUGGUUCCAGCCUCCUCGCUGGCGCCGGCUGGGCAACAUUCCGAGGGGACCGUCCCCUCGGUAAUGGCGAAUGGGACCCA | 0.0831
17 | GGCCGGCAUGGUCCCAGCCUCCUCGCUGGCGCCGUCGGGGCAACAUUCCGAGGGGACCGUCCCCUCGGUAAUGGCGAAUGGGACCCA | 0.095
18 | GGCCGGCAUGGUCCCAGCCUCCUCGCUGGCGCCGGCUGGGCAACAUUCCGAGUGGACCGUCCCCUCGGUAAUAGCGAAUGGGACCCA | 0.831
19 | GGCCGGCAUGGUCCCAGCCUCCUCGCUGGCGCCGGCUGGGCAACAUUCCGGGGGGACCGUCACCUCGGUAAUGGCGAAUGGGACCCA | 0.812
20 | GGCCGGCAUGGUCCCAGCCUCCUCGCUGGCGCCGGGUGGGCAACAUUCCGAGGGGACCGUCCCCUCGGUAAUUGCGAAUGGGACCCA | 0.0326
21 | GGCCGGCAUGGUCCCAGCCUCCUCGCUGGCGCCGGCUGGGCAACAUUCCGAGGGGACCGUCCCCACGGUAAUAGCGAAUGGGACCCA | 0.342
22 | GGCCGGCAUGGUCCCAGCCUCCUCGCUGGCGCCGGCUGGGCAACAUUCCGAGGGGACCAUCCCCUCAGUAAUGGCGAAUGGGACCCA | 0.979

Row | Variant | self-cleavage
23 | GGUCGGCGUGGUCCCAGCCUCCUCGCUGGCGCCGGCUGGGCAACAUUCCGAGGGGACCGUCCCCUCGGUAAUGGCGAAUGGGACCCA | 0.554
24 | GGCCGGCAUGGUCCCAGCCUCCUCGCUGGCGCCGGCUGGGCAAGAUUCCGAGGGGACCGUCCCCUCGGUAAUGGCAAAUGGGACCCA | 0.8
25 | GGCCGGCAUGGUCCCAGCCUGCUCGCUGGCGCCGGCUGGGCAACAUUCCGAGGGGACCGUCCCCUCGGUAAUGGCGACUGGGACCCA | 0.0462
26 | GGCCGGCAUGGUCCCAGCCUCCUCGCUGGCGCCGGCUGGGCAACAUUCCGAGGGGACCUUCACCUCGGUAAUGGCGAAUGGGACCCA | 0.831
27 | GGCCGGCAUGGUCCCAGCCUCCUCGCUGGCGCCGGCUGGGCAAGAUUCCGAGGGGACCGUCCCCUCGGUAAUGGCGGAUGGGACCCA | 0.665
28 | GGCCGGCAUGGUCCCAUCCUCCUCGCUGGCGCCGGCUGGGCAACAUUCCGAGGGGACCGUCCCCUCGGUAAUGGCGAAUGGAACCCA | 0.543
29 | GGCCGGCAUGGUCCCAGCCUCCUCGCUGGCGCCGGCUGGGGAACAUUCCGAGGGGACCGUGCCCUCGGUAAUGGCGAAUGGGACCCA | 0.875
30 | GGCCGGCAUGGUCCCAGCCUCCUCGCUGGCGCCGGCUGGGCCACAUUCCGAGGGGACCGUCCCCUCGGUAAUGGCGGAUGGGACCCA | 0.156
31 | GGCCGGCAUGGUCCCAGCCUCCUCGCUGGCGCCGGCUGGGCAACAUUCCGAGGGGACCGUCCCCUAGGUAAUGGCGAAUGGGACCCG | 0.898
32 | GGCCGGCAUGGUACCAGCCUCCUCGCUGGCGCCGGCUGGGCAACAUUCCGAGGGGACCGUCCCCUCGGUAAUGGCGACUGGGACCCA | 0.0297
33 | GGCCGGCAUGGUCCCAGCCUCCUCGCUGGCUCCGGCUGGGCAACAUUCCGAGGGGACCGUCCCCUCGGUAAUGGCGAAUGGGACCCA | 0.47
34 | GGCCUGCAUGGUCCCAGCCUCCUCGCUGGCGCCGGCUGGGCAACAUUCCGAGGGGACCGUCCCCUCGGUAAUGGCGAACGGGACCCA | 0.123
35 | GGCCGGCAUGGUCCCAGCCUCCUCGAUGGCGCCGGCUGGGCAACAUUCCGAGGGGACCGUCCCCUCGGUAAUGGCGUAUGGGACCCA | 0.597
36 | GGCCGGCAUGGUCCCACCCUCCUCGCUGGCGCCUGCUGGGCAACAUUCCGAGGGGACCGUCCCCUCGGUAAUGGCGAAUGGGACCCA | 0.0415
37 | GGCCGGCAUCGUCCCAGCCUCCUCGCUGGCGCGGGCUGGGCAACAUUCCGAGGGGACCGUCCCCUCGGUAAUGGCGAAUGGGACCCA | 0.145
38 | GGCCGGCAUGGACCCAGCCUCCUCGCUGGCGCCGGCUGGGCAACAUUCCGAGGGGACCGUCCGCUCGGUAAUGGCGAAUGGGACCCA | 0.293
39 | GGCCGGCAUGGUCUCAGCCUCCUCGCUGGCGCCGGCUGGGCAAUAUUCCGAGGGGACCGUCCCCUCGGUAAUGGCGAAUGGGACCCA | 0.831
40 | GGCCGGCAUGGUCCCAGCCUCCUCGCAGGCGCCGGCUGGGCAACAUUCCGAGGGGACCGUCCCCUCGGUAAUCGCGAAUGGGACCCA | 0.0639
41 | GGCCGGCAUGGUCCCAGCCUACUCGCUGGCGCCGGCUGGGCAACAUUCCGAGGGGACCGUUCCCUCGGUAAUGGCGAAUGGGACCCA | 0.0963
42 | GGCCGGCAUGGUCCCAGCCUCCUCUCUGGCGCCGGCUUGGCAACAUUCCGAGGGGACCGUCCCCUCGGUAAUGGCGAAUGGGACCCA | 0.134
43 | GGCCGGCAUGGUCCCAGCCUCCUCGCUGGCGCCGGCUGGGCCACAUUUCGAGGGGACCGUCCCCUCGGUAAUGGCGAAUGGGACCCA | 0.26
44 | GGCCGGCAUGGUCCCAGCCUCCUCGCUAGCGCCGGCUGGGCAACUUUCCGAGGGGACCGUCCCCUCGGUAAUGGCGAAUGGGACCCA | 0.128

Row | Variant | self-cleavage
45 | GGCCGGCACGUUCCCAGCCUCCUCGCUGGCGCCGGCUGGGCAACAUUCCGAGGGGACCGUCCCCUCGGUAAUGGCGAAUGGGACCCA | 0.383
46 | GGCCGGCAUGGUCCCAGCCUCCUCGCUGUCGCCGGCUGGGCAACAUUCCGAGGGGACCGUCCCCUCGGUAGUGGCGAAUGGGACCCA | 0.162
47 | GGCCGGCAUGGUCCCAGCCUCCUCGCUGGCGCCGGCUGGGCAACAUCCCGAGGGGACCGUCCCCUCGGUAAUGGCGAAUGGGACCCU | 0.746
48 | GGCCGGCAUGGUCCCAGCCUCCUCGCUGGCGCCGUCUGGGCAACAUUCCGAGGGGACCAUCCCCUCGGUAAUGGCGAAUGGGACCCA | 0.415
49 | GGCCGGCAUGGUCCCAGCCUCAUCGCUGGCGCCGGCUGGGCAACAUUCCGAGGGGACUGUCCCCUCGGUAAUGGCGAAUGGGACCCA | 0.332
50 | GGCCGGCAUGGUCCCAGCCUCCUCGCUGGCGCCGGCUGGGCUACAUUCCGAGGGGACCGUCCCCUCGAUAAUGGCGAAUGGGACCCA | 0.407
51 | GGCUGGCAUGGUCCCAGCCUCCUCGCUGGCGCCGGCUGGGCAACAUUCCGAGGGGACCGUCCCCUCGGUAAUGGCGAUUGGGACCCA | 0.155
52 | GGCCGGCAUGGUCCCAGCCUCCUCGCUGGCGCCGGCUGGGCAACAUUCCGAGGGGACCGUCCCCUCGGUAAUGGCCAAUGGGACCGA | 0.971
53 | GGCCGGCAUGGUCCCAGCAUCCUCGCUGGCGCCGGCUGGGUAACAUUCCGAGGGGACCGUCCCCUCGGUAAUGGCGAAUGGGACCCA | 0.0382
54 | GGCCGGCAUGGCCCCAGCCUCCUCGCUGGCGCCGGCUGGGCAACAUUCCGAGGGGACCGUCCCCUCGGUAAUGGCGAAUGAGACCCA | 0.095
55 | GGCCGGCUUGGUCCCAGCCUCCUCGCUGGCGCCGGCUGGGCAACAUUCCUAGGGGACCGUCCCCUCGGUAAUGGCGAAUGGGACCCA | 0.848
56 | GGCCGGCAUGGUCCCAGCCUCCUCGCUGGCGCCGGCUGGGCAACAUUCCGAGGGGACCUUCCCCUGGGUAAUGGCGAAUGGGACCCA | 0.981
57 | GGCCGGCAUGGUCCCAGCCUCCUCGCUGGCGCCGGCUGGGCAACAUUCCCAGGGGACCGUCCCCUCGGUGAUGGCGAAUGGGACCCA | 0.917
58 | GGCCGGCAUGGUCCCAGCCUCCUCGCUGGCGCCGGCUGGGCAACAUUCCGAGGGGACCGUCCUCACGGUAAUGGCGAAUGGGACCCA | 0.849
59 | GGCCGGCAUGGUCCCAGCCACCUCGCUGGCGCCGGCUGGGCAACAUUCCGAGGGGACCUUCCCCUCGGUAAUGGCGAAUGGGACCCA | 0.222
60 | GGCCGGCACGGUCCCAGCCUCCUCGCUGGCGCCGGCUGGGCAACAUUCCGAGGGGACCGUCCCCUCGGUAAUGGCGAAUGGGACGCA | 0.731
61 | GGCCGGCAUGGUCGCAGCCUCCUCGCUGGCGCCGGCUGGGCAAGAUUCCGAGGGGACCGUCCCCUCGGUAAUGGCGAAUGGGACCCA | 0.196
62 | GGCCGGCAUGGUCCCAGCCUCCUCGUUGGCGCCGGCUGGGCAACAUUCCGAGGGAACCGUCCCCUCGGUAAUGGCGAAUGGGACCCA | 1.05
63 | GGCCGGCAUGGUCCCAGCCUCCUCGCUGGCGCCGGCUGGGCAACAUUCCGAGGCGACCGUCCCCUCGGUAAUGGCGAAUUGGACCCA | 0.206
64 | GGCCGGCAUGGUCCCAGCCUCCUCGCCGGCGCCGGCUGGGCAACAUUCCGAGGGGACCGUCCCCUCGGUAAUGGCGAAUGGGACACA | 0.978
